From patent EP4806921A1 (Daan Biotherapeutics, Inc., dated 2026) come the findings set out here.

The test addresses T1, CEACAM5 protein (Acrobiosystems) (UniProt P06731 35-685).
T1 construct: also called CEACAM5 full-length protein
T1 sequence (looked up): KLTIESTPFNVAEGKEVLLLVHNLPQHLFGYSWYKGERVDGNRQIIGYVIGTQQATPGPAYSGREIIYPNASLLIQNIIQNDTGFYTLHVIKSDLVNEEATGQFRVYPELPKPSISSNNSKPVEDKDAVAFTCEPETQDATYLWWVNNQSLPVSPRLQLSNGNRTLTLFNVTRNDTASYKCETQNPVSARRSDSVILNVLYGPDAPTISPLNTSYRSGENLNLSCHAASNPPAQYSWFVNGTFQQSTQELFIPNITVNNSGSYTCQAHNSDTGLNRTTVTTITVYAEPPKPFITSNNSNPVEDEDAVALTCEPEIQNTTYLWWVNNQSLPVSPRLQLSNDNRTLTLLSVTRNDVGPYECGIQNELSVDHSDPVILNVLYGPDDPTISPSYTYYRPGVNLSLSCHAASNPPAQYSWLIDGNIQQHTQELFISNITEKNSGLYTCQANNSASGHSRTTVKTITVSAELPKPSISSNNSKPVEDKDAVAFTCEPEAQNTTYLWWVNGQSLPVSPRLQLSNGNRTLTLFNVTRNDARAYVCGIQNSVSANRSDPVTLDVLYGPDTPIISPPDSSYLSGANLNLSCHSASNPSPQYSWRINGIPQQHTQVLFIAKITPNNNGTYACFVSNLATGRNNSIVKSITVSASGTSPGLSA
Nature of the test: ELISA on coated CEACAM5 protein (Acrobiosystems), antibody 200 nM to 0.0004 nM. On the technique in general: In an ELISA, binding on a coated surface is turned into a signal by an enzyme label.

B1: humanized 94E12E2-04 antibody (antibody, V domains shown)
VH: EVQLVESGGGLVQPGGSLRLSCAASGFNIKDNYMHWVRQAPGKGLEWIGWIDPENGDTEYDPKFQGRATMSADTSKNTAYLQMNSLRAEDTAVYYCNIITMATPYPMDYWGQGTLVTVSS
VL: DIQLTQSPSSLSASVGDRVTITCSASTSVIYMHWFQQKPGKAPKLWIYSTSNLASGVPSRFSGSGSGTDYTLTISSLQPEDFATYYCQQRSSYPLTFGQGTKVEIKR
Take B1: the binding result is listed as “binds”.

B2: humanized 94E12E2-06 antibody (antibody, V domains shown)
VH: QVQLVQSGAEVKKPGASVKVSCKASGFNIKDNYMHWVRQAPGQGLEWIGWIDPENGDTEYDPKFQGRATMTADTSISTAYMELSRLRSDDTAVYYCNIITMATPYPMDYWGQGTLVTVSS
VL: EIVLTQSPDFQSVTPKEKVTITCSASTSVIYMHWFQQKPDQSPKLWIYSTSNLASGVPSRFSGSGSGTDYTLTINSLEAEDAATYYCQQRSSYPLTFGQGTKLEIKR
For the molecule B2, the binding result is recorded as “binds”.
